# Experimental data reported in publication PMC12375101.
# Columns and labels:
# Aurora A [1] = molecular target: Aurora A (UniProt O14965); experiment: co-IP of Bora-GFP, Aurora A immunoblot; conditions: reference: wild type Bora-GFP; sites S59
# Aurora A [2] = molecular target: Aurora A (UniProt O14965); experiment: Myc co-IP, Aurora A immunoblot; conditions: reference: wild type Bora-Myc; sites S59
# Aurora A [3] = molecular target: Aurora A (UniProt O14965); experiment: GFP co-IP, Aurora A immunoblot; conditions: reference: wild type Bora-GFP; sites S59
# Aurora A [4] = molecular target: Aurora A (UniProt O14965); experiment: GST-Aurora A pull-down of MBP-Bora; conditions: reference: unphosphorylated MBP-Bora; sites S59
substance,measurement,setting,value
Bora (from UniProt Q6PGQ7) S59A,binding against the reference,Aurora A [1],weaker
same,binding against the reference,Aurora A [2],weaker
same,binding against the reference,Aurora A [3],weaker
Bora (from UniProt Q6PGQ7) MBP-Bora-S59ph (genetic code expansion),binding against the reference,Aurora A [4],stronger
